Test [1] deals with T1, human CD137 expressed on cells (Flp-In-CHO::huCD137; NFkB-luc2/CD137 Jurkat cells) (human, UniProt Q07011 24-255).
T1 construct: whole, on cells; also called human CD137-expressing cells
Put plainly: flow cytometry, CHO cells transfected with human CD137, detection labelled anti-human IgG, GeoMean BL1-H [lower graph]. The procedure:
For flow cytometric analysis, respective cell lines were incubated with an exemplary fusion protein (SEQ ID NOs: 87 and 82), the GPC3 antibody or the CD137 specific lipocalin mutein (Fc fusion) as included in the fusion protein (SEQ ID NOs: 81 and 82 and SEQ ID NO: 98, respectively), a reference CD137 antibody SEQ ID NOs: 26 and 27, or an isotype control (SEQ ID NOs: 24 and 25) and detected using a fluorescently labeled anti-human IgG antibody in FACS analysis as described in the following:
(§1) 5×10⁴ cells per well were incubated for 1 h in ice-cold PBS containing 5% fetal calf serum (PBS-FCS). A dilution series of the testing molecule were added to the cells and incubated for 1 h on ice. Cells were washed twice with PBS and then incubated with a goat anti-hlgG Alexa647-labeled antibody or goat anti-hlgG Alexa488-labeled antibody for 30 min on ice. Cells were subsequently washed and analyzed using iQue Flow cytometer (Intellicyte Screener). Mean geometric fluorescent signals were plotted and fitted with Graphpad software. The geometric means of the fluorescence intensity were used to calculate EC₅₀ values using a four-parameter logistic regression with bottom fixed to background.

Test [2] deals with T2, recombinant human GPC3 (huGPC3) (R&D Systems) (human, UniProt P51654 25-559).
T2 construct: also called biotinylated huGPC3
T2 sequence (P51654 25-559 limits assumed): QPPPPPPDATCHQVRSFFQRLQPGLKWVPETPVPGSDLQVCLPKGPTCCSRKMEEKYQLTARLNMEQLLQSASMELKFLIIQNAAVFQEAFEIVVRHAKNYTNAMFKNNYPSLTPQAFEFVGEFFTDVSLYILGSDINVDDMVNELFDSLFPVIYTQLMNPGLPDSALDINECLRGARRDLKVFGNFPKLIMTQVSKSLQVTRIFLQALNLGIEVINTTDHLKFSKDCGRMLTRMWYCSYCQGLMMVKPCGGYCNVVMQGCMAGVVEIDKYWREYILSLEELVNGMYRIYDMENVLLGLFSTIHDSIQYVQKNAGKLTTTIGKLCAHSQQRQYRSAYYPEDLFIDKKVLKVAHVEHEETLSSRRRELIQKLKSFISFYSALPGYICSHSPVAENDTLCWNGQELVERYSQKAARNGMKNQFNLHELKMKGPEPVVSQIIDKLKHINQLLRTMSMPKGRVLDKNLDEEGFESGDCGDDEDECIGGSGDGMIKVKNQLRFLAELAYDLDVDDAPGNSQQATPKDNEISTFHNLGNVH
Description: SPR (Biacore T200), binder captured by anti-human IgG Fc, huGPC3 as analyte, 1:1 model. The protocol: (§2) The anti-human IgG Fc antibody (GE Healthcare) was immobilized on a CM5 sensor chip using standard amine chemistry: the carboxyl groups on the chip were activated using 1-ethyl-3-(3-dimethylaminopropyl)-carbodiimide (EDC) and N-hydroxysuccinimide (NHS). Subsequently, anti-human IgG Fc antibody solution (GE Healthcare) at a concentration of 25 μg/mL in 10 mM sodium acetate (pH 5.0) was applied at a flow rate of 5 μL/min until an immobilization level of 6000-10000 resonance units (RU) was achieved. Residual non-reacted NHS-esters were blocked by passing a solution of 1M ethanolamine across the surface. The reference channel was treated in an analogous manner. Subsequently, testing fusion proteins (SEQ ID NOs: 87 and 82 and CD137Ac1-Fusion 1) or the GPC3 antibody as included in the fusion protein (SEQ ID NOs: 81 and 82) at 0.2 μg/ml in HBS-EP+ buffer was captured by the anti-human IgG-Fc antibody at the chip surface for 180 s at a flow rate of 10 μL/min. After each capture step, the needle was washed.
(§3) The binding assay was carried out with a contact time of 180 s, a dissociation time of 900 s, and a flow rate of 30 μL/min. After each injection, the needle was cleaned with 40 mM NaOH+20% isopropanol. All measurements were performed at 25° C. […] Prior to the protein measurements, three startup cycles were performed for conditioning purposes. Data were evaluated with Biacore T200 Evaluation software (v2.0). Double referencing was used and the 1:1 binding model was used to fit the raw data.

For test [3], the target named is recombinant cynomolgus GPC3 (cyGPC3) (R&D Systems) (cynomolgus, UniProt A0A2K5VK50 24-558). Description: SPR (Biacore T200), binder captured by anti-human IgG Fc, cyGPC3 as analyte, 1:1 model. The procedure: as §2, §3
The target of test [4] is T2, recombinant human GPC3 (huGPC3) (R&D …). Put plainly: dual-binding ELISA: huGPC3 coated, fusion titrated, detection with biotinylated huCD137-His. The procedure: Recombinant huCD137-His (R&D Systems) in PBS (1 μg/mL) was coated overnight on microtiter plates at 4° C. The plates were washed five times after each incubation step with 100 μL PBS-0.05% T. The plates were blocked with PBS-0.1% T-2% BSA for 1 h at room temperature and subsequently washed again. Different concentrations of tested fusion proteins were added to the wells and incubated for 1 h at room temperature, followed by a wash step. Subsequently, biotinylated huGPC3 was added at a constant concentration of 1 μg/mL in PBS-0.1% T-2% BSA for 1 h. After washing, a 1:5000 dilution of ExtrAvidin-HRP (Sigma-Aldrich) in PBS-0.1% T-2% BSA was added to the wells and incubated for 1 h. After an additional wash step, fluorogenic HRP substrate (QuantaBlu, Thermo) was added to each well, and the fluorescence intensity was detected using a fluorescence microplate reader.
The dual binding of fusion proteins was also tested with a reverse set-up where recombinant huGPC3 (R&D Systems) was coated on microtiter plates at 1 μg/ml and the bound fusion proteins were detected via the addition of 5 μg/mL biotinylated huCD137-His.
Exemplary dual binding data are shown in FIG. 3, together with the fit curves resulting from a 1:1 sigmoidal binding fit, where the EC₅₀ value and the maximum signal were free parameters, and the slope was fixed to unity.

Test [5] has as its target T3, human GPC3 expressed on cells (SK-Hep1::huGPC3; HepG2, Hep3B and MKN-45 tumor cells) (human, UniProt P51654 25-554).
T3 construct: whole, on cells; also called GPC3-positive tumor cells; human GPC3-expressing cells
Description: flow cytometry on MKN-45 tumor cells (GPC3 moderate). The protocol: as §1
For flow cytometric analysis, tumor cell lines with different GPC3 expression levels (high to moderate expression: HepG2>Hep3B>MKN-45) and GPC3 negative cell line NCI-N87 were incubated with an exemplary fusion protein SEQ ID NOs: 87 and 82, the GPC3 antibody or the CD137 specific lipocalin mutein (Fc fusion) as included in the fusion protein (SEQ ID NOs: 81 and 82 and SEQ ID NO: 98, respectively), a reference CD137 antibody SEQ ID NOs: 26 and 27, or an isotype control (SEQ ID NO: 24 and 25), and detected using a fluorescently labeled anti-human IgG antibody as described in Example 6.

This is an account of results in patent publication US20220153864A1 (Pieris, published 2022).

T1 sequence (Q07011 24-255): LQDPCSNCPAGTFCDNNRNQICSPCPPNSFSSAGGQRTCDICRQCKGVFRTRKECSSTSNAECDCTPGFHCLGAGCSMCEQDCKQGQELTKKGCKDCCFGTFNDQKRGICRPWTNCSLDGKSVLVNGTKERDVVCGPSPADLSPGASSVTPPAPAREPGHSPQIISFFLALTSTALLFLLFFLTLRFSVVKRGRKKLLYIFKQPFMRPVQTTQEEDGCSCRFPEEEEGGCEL
T3 sequence (P51654 25-554 limits assumed): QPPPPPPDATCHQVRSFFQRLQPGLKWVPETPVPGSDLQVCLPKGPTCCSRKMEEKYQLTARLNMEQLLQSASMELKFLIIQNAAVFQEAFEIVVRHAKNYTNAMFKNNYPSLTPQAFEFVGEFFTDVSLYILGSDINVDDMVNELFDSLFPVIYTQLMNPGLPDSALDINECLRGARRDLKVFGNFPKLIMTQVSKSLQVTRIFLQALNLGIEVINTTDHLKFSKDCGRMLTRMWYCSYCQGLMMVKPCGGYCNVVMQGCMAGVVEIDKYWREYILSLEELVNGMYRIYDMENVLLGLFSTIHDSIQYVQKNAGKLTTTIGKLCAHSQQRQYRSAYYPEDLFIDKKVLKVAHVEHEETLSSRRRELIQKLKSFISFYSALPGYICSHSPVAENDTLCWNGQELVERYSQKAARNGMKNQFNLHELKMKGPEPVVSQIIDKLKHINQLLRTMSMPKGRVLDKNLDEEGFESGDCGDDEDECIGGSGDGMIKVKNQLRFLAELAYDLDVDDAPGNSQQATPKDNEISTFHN

B1: fusion protein SEQ ID NOs: 87 and 82 (bispecific antibody, human IgG4 S228P, kappa, F234A L235A)
heavy: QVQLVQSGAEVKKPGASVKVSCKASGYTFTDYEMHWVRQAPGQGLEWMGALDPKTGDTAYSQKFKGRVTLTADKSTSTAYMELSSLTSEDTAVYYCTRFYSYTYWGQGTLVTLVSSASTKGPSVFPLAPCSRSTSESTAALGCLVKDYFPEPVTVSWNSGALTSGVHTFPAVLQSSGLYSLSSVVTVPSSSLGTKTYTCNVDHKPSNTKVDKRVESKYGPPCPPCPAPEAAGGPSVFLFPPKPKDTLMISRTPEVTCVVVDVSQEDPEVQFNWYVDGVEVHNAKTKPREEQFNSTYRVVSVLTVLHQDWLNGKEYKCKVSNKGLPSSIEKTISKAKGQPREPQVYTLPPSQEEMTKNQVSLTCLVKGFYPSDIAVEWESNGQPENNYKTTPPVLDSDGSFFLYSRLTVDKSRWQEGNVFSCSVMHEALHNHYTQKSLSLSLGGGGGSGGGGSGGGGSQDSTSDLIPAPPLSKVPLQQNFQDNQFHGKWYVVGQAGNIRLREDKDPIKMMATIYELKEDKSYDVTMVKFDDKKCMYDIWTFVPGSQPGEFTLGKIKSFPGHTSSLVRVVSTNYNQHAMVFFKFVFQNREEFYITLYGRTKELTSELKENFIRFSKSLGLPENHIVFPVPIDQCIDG
light: DVVMTQSPLSLPVTPGEPASISCRSSQSLVHSNRNTYLHWYLQKPGQSPQLLIYKVSNRFSGVPDRFSGSGSGTDFTLKISRVEAEDVGVYYCSQNTHVPPTFGQGTKLEIKRTVAAPSVFIFPPSDEQLKSGTASVVCLLNNFYPREAKVQWKVDNALQSGNSQESVTEQDSKDSTYSLSSTLTLSKADYEKHKVYACEVTHQGLSSPVTKSFNRGEC
notes: also called exemplary fusion protein
On to B1, for which the concentration for a half-maximal effect (EC50 (read off the curve)) in test [1] was around 20 nM. Also, in test [2], the dissociation constant Kd is 0.657 nM, the koff is 0.000269 s⁻¹ and the kon amounted to 409000 M⁻¹ s⁻¹. Further, in test [3], the dissociation constant Kd came to 0.936 nM, the koff turned out to be 0.000275 s⁻¹ and the kon was determined as 293000 M⁻¹ s⁻¹. In test [4], the concentration for a half-maximal effect (EC50) is 0.98 nM. Moreover, the EC50 in test [5] is 2.59 nM.
